# The supplement of paper PMC10724198
# ± gives the standard deviation of the averaged measurements.
# Test system: Saccharomyces cerevisiae
# Assay: protein stability index of tFT-peptide fusion (C-terminal peptide) (PSI (0-1 scale)); higher = more stable (slower turnover)
# Settings: genetic background: wild type; temperature: 30 C
# Method: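 MPS profiling in S. cerevisiae of the tFT-X12 degron library: putative degron peptides plus stable controls, 12 aa, fused to the C-terminus of a sfGFP-mCherry timer. Cells are FACS-sorted into 8 mCherry/sfGFP bins and deep-sequenced. PSI runs from 0 (unstable) to 1 (stable). Backgrounds are wild type, das1Δ and doa10Δ at 30 °C, and wild type, das1Δ, cdc34-1 and cdc53-1 at 37 °C; 2-3 technical replicates each.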
# 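Further: PSI is a weighted mean of sequencing reads over stability bins, variants kept only with over 10 reads, mCherry proximal and sfGFP distal, peptide attached via GGGS linker.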
row,Sequence,protein stability index
1,FLIFGMVDFAVV,0.226 ± 0.019
2,FLIFVVIGGVGL,0.276 ± 0.023
3,FLLELRFTCSYS,0.406 ± 0.023
4,FLLFFVLRLLPC,0.231 ± 0.026
5,FLPGEAVFVYCR,0.391 ± 0.028
6,FLSVGFSCSFVC,0.4115 ± 0.0017
7,FLSVLPLFAFFA,0.258 ± 0.014
8,FLVCTFCRWVWL,0.162 ± 0.012
9,FLVFPLLIQFFL,0.257 ± 0.014
10,FPLGAQTWLCLS,0.24 ± 0.032
11,FPLPPPGSPPPL,0.677 ± 0.011
12,FRFFYLPVSVVA,0.142 ± 0.021
13,FRHKLSLGLVIV,0.377 ± 0.028
14,FRYLRPAFLLLH,0.0405 ± 0.019
15,FSALAPTPLLPL,0.671 ± 0.016
16,FSFCFCFPLSSL,0.248 ± 0.013
17,FSPSPVFVTCRV,0.218 ± 0.031
18,FTRLDYKRIKIV,0.0685 ± 0.03
19,FVEFCFWCFWVV,0.361 ± 0.026
20,FVICGMLVHWMV,0.344 ± 0.02
21,FVLLCVLEFVAG,0.151 ± 0.036
22,FVVFLLFFMLYH,0.305 ± 0.025
23,FVVFYFFLLFGV,0.264 ± 0.025
24,FVVVCWFWGGGF,0.27 ± 0.048
25,FWMLCFLCRLTV,0.221 ± 0.026
26,FWVNFLFVLFIL,0.197 ± 0.022

row,Sequence,protein stability index
1,FYACRLWLVSVR,0.184 ± 0.021
2,GACRVSSCVVVC,0.358 ± 0.014
3,GAFAGDVWRCVV,0.165 ± 0.026
4,GALWVLGVVVGG,0.364 ± 0.027
5,GAVRRWGWVSFV,0.193 ± 0.0085
6,GAVVYGICFCTN,0.363 ± 0.035
7,GCLVVVGFFSVF,0.241 ± 0.0093
8,GCVLVFFLRLDL,0.365 ± 0.0072
9,GFALGSFMLVLR,0.0702 ± 0.012
10,GFCFVFVFQCFF,0.276 ± 0.039
11,GFFFLFFVSAFI,0.311 ± 0.064
12,GFFFYFVLFGLS,0.268 ± 0.018
13,GFISKLIIKLAA,0.319 ± 0.016
14,GFVLMLLVRFEL,0.294 ± 0.046
15,GGFRVLLWCVVW,0.208 ± 0.03
16,GGGEGVVWVRLG,0.131 ± 0.0021
17,GGGWCEMLIVVG,0.367 ± 0.03
18,GGRFVWIVRAVG,0.272 ± 0.037
19,GGRHYGILDLSL,0.677 ± 0.025
20,GGVSPRSSMDLL,0.645 ± 0.012
21,GGVWVLGVAVVW,0.236 ± 0.023
22,GGWSFSSLWKIA,0.127 ± 0.019
23,GIGVVWLDVFKT,0.304 ± 0.017
24,GIKLNVVYILLG,0.35 ± 0.05
25,GKHILLISLNIT,0.251 ± 0.046
26,GKVSSFVLFHIS,0.234 ± 0.021

row,Sequence,protein stability index
1,GLAVLSWLYIEL,0.461 ± 0.014
2,GLCFRVCIWVFV,0.125 ± 0.025
3,GLGWLLFVVERV,0.345 ± 0.025
4,GLSLLLLWFKVC,0.104 ± 0.025
5,GLSVFFFVGFIF,0.322 ± 0.02
6,GLVSCWIDPSMA,0.628 ± 0.03
7,GPCRPWIVVYAG,0.333 ± 0.018
8,GPWVIFSHLLLT,0.249 ± 0.02
9,GRFGVGVVFRLA,0.393 ± 0.027
10,GRGRGGRWGRLC,0.215 ± 0.024
11,GRLRLGVLCGGV,0.472 ± 0.013
12,GRVFSSFFLYIS,0.0543 ± 0.017
13,GRVYLLGLYMSF,0.338 ± 0.026
14,GSLGHCWFLFGV,0.538 ± 0.0098
15,GSLHVISVVGML,0.439 ± 0.018
16,GSVLWISCLIFC,0.18 ± 0.027
17,GTHWARLGWLLA,0.176 ± 0.023
18,GVAFGLLVWLLG,0.326 ± 0.033
19,GVGAISLGFSWL,0.67 ± 0.027
20,GWLRHGWWRTVG,0.17 ± 0.018
21,GWMLVVWCGVFG,0.195 ± 0.031
22,GYAFPPPHRVRT,0.652 ± 0.029
23,GYLVFTLRWLRG,0.305 ± 0.02
24,GYTVYARRLIMC,0.0799 ± 0.0087
25,GYVVYRRYILIR,0.0783 ± 0.012
26,HCSRMIIIFLFL,0.282 ± 0.013

# Same assay, conditions: genetic background: wild type; temperature: 37 C
row,Sequence,protein stability index
1,FLIFGMVDFAVV,0.387 ± 0.035
2,FLIFVVIGGVGL,0.435 ± 0.057
3,FLLELRFTCSYS,0.4158 ± 0.0028
4,FLLFFVLRLLPC,0.376 ± 0.011
5,FLPGEAVFVYCR,0.64997 ± 0.00056
6,FLSVGFSCSFVC,0.609 ± 0.013
7,FLSVLPLFAFFA,0.4221 ± 0.0032
8,FLVCTFCRWVWL,0.249 ± 0.018
9,FLVFPLLIQFFL,0.323 ± 0.014
10,FPLGAQTWLCLS,0.466 ± 0.036
11,FPLPPPGSPPPL,0.707 ± 0.014
12,FRFFYLPVSVVA,0.0865 ± 0.013
13,FRHKLSLGLVIV,0.534 ± 0.014
14,FRYLRPAFLLLH,0.0854 ± 0.02
15,FSALAPTPLLPL,0.7063 ± 0.0068
16,FSFCFCFPLSSL,0.407 ± 0.015
17,FSPSPVFVTCRV,0.296 ± 0.011
18,FTRLDYKRIKIV,0.0698 ± 0.0013
19,FVEFCFWCFWVV,0.499 ± 0.0043
20,FVICGMLVHWMV,0.5356 ± 0.0023
21,FVLLCVLEFVAG,0.253 ± 0.0087
22,FVVFLLFFMLYH,0.411 ± 0.0096
23,FVVFYFFLLFGV,0.4219 ± 0.0009
24,FVVVCWFWGGGF,0.429 ± 0.021
25,FWMLCFLCRLTV,0.361 ± 0.0071
26,FWVNFLFVLFIL,0.307 ± 0.02

row,Sequence,protein stability index
1,FYACRLWLVSVR,0.269 ± 0.0029
2,GACRVSSCVVVC,0.526 ± 0.0059
3,GAFAGDVWRCVV,0.2682 ± 0.0021
4,GALWVLGVVVGG,0.511 ± 0.013
5,GAVRRWGWVSFV,0.393 ± 0.004
6,GAVVYGICFCTN,0.621 ± 0.0069
7,GCLVVVGFFSVF,0.409 ± 0.018
8,GCVLVFFLRLDL,0.562 ± 0.01
9,GFALGSFMLVLR,0.0617 ± 0.0078
10,GFCFVFVFQCFF,0.402 ± 0.014
11,GFFFLFFVSAFI,0.445 ± 0.0067
12,GFFFYFVLFGLS,0.446 ± 0.016
13,GFISKLIIKLAA,0.462 ± 0.026
14,GFVLMLLVRFEL,0.465 ± 0.035
15,GGFRVLLWCVVW,0.35 ± 0.028
16,GGGEGVVWVRLG,0.19 ± 0.01
17,GGGWCEMLIVVG,0.542 ± 0.017
18,GGRFVWIVRAVG,0.568 ± 0.057
19,GGRHYGILDLSL,0.6992 ± 0.00076
20,GGVSPRSSMDLL,0.7319 ± 0.0035
21,GGVWVLGVAVVW,0.275 ± 0.0036
22,GGWSFSSLWKIA,0.205 ± 0.012
23,GIGVVWLDVFKT,0.504 ± 0.035
24,GIKLNVVYILLG,0.536 ± 0.0097
25,GKHILLISLNIT,0.455 ± 0.02
26,GKVSSFVLFHIS,0.475 ± 0.0066

row,Sequence,protein stability index
1,GLAVLSWLYIEL,0.57036 ± 0.0001
2,GLCFRVCIWVFV,0.218 ± 0.0086
3,GLGWLLFVVERV,0.511 ± 0.027
4,GLSLLLLWFKVC,0.0839 ± 0.013
5,GLSVFFFVGFIF,0.521 ± 0.031
6,GLVSCWIDPSMA,0.708 ± 0.023
7,GPCRPWIVVYAG,0.512 ± 0.0063
8,GPWVIFSHLLLT,0.3963 ± 0.0027
9,GRFGVGVVFRLA,0.6096 ± 0.0043
10,GRGRGGRWGRLC,0.476 ± 0.023
11,GRLRLGVLCGGV,0.634 ± 0.017
12,GRVFSSFFLYIS,0.0883 ± 0.017
13,GRVYLLGLYMSF,0.481 ± 0.037
14,GSLGHCWFLFGV,0.475 ± 0.021
15,GSLHVISVVGML,0.595 ± 0.014
16,GSVLWISCLIFC,0.347 ± 0.038
17,GTHWARLGWLLA,0.379 ± 0.033
18,GVAFGLLVWLLG,0.484 ± 0.0068
19,GVGAISLGFSWL,0.7491 ± 0.0035
20,GWLRHGWWRTVG,0.4286 ± 0.00089
21,GWMLVVWCGVFG,0.295 ± 0.0069
22,GYAFPPPHRVRT,0.702 ± 0.016
23,GYLVFTLRWLRG,0.461 ± 0.0085
24,GYTVYARRLIMC,0.0893 ± 0.024
25,GYVVYRRYILIR,0.0969 ± 0.011
26,HCSRMIIIFLFL,0.514 ± 0.038
